This data set deals with Int-His6 (bacteriophage lambda integrase, with IHF; BP Clonase) (Bacteriophage lambda) (UniProt P03700+P0A6X7+P0A6Y1). Description: cell_activity. The conditions noted are these: degenerate pool vs attB1-LacZa-attB2, overnight.
Chain of UniProt P03700 (P03700 whole entry, chain 1 of 3): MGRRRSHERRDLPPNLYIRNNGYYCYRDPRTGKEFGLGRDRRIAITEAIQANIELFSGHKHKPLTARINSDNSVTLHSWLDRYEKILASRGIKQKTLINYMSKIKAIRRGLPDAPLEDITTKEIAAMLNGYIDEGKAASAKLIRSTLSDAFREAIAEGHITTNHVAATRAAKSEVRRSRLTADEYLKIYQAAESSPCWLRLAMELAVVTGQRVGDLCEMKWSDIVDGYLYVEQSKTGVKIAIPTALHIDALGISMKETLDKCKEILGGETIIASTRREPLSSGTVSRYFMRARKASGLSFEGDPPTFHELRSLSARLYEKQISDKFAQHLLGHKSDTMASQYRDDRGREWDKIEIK
Chain of UniProt P03700 (P0A6X7 2-99, chain 2 of 3): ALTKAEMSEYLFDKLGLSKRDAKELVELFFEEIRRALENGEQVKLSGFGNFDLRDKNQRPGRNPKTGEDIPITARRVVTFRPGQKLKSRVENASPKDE
Chain of UniProt P03700 (P0A6Y1 whole entry, chain 3 of 3): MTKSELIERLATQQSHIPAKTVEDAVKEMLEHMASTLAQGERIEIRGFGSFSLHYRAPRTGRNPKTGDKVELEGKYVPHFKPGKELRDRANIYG
Consider “GGGGACAAGTTTGTACAAAAAAGCNNNNN (double strand) [attB1n21-25]”, for which the binding signal was 14%.

“GGGGACCACTTTGTACAAGNNNNNTGGGT (double strand) [attB2n16-20]” came in with a binding signal of 0.9%.

In turn, “GGGGACCACTTTGTACAAGAAAGCNNNNN (double strand) [attB2n21-25]” had a binding signal of 21%.

“GGGGACAAGTTTGTACAAANNNNNAGGCT (double strand) [attB1n16-20]” showed a binding signal of 1.5%.
